Data reported in patent publication US20150218281A1 (Ablynx, published 2015).

Target: T1, recombinant human OX40L (extracellular domain, R&D Systems) (human, UniProt P23510 51-183)
T1 sequence: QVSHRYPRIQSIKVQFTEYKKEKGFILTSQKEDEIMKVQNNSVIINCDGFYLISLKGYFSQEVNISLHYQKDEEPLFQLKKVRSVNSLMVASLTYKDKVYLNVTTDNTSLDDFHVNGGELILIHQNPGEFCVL
Test: cell-based or functional assay

IC50, T cell assay with rec. hOX40L: 10 nM
B1: OX40L15B07 (VHH)
VHH: EVQLVESGGGLVQAGGSLRLSCAASRSIGRLDRMGWYRHRTGEPRELVATITGGSSINYGDFVKGRFTISIDNAKNTVYLQMNNLKPEDTAVYYCNFNKYVTSRDTWGQGTQVTVSS
notes: monovalent Nanobody from E. coli; not shown: C-terminal c-myc and His6 tag
